Reference: paper PMC7822592, “The half-life of the bone-derived hormone osteocalcin is regulated through O-glycosylation in mice, but not in humans” (eLife, 2020)
No end group written: not given here.

Assays:
human plasmin = biological target: T1, human plasmin (Homo sapiens, UniProt P00747); assay: Plasmin enzymatic assay on OCN in heat-inactivated plasma; assay type: in vitro ADME; details: for % OCN from initial: heat-inactivated Bglap-/- plasma diluted two times in 100 mM Tris pH 7.5, 50 ng/ml, ELISA; for % OCN from initial / % OCN from initial in plasmin (0.3 U/ml): 2hrs, 37°C; for % OCN from initial in plasmin (0.3 U/ml): inset graph, heat-inactivated Bglap-/- plasma, 50 ng/ml
T1 construct: different concentration of human plasmin (Sigma); purchased Sigma P1867
Procedure: The plasmin enzymatic assay was performed on plasma ex vivo in the presence of non-glycosylated OCN and glycosylated OCN as follows: plasma from Bglap-/- mice was heat-inactivated for 30 min at 56°C, then diluted two times in the enzyme assay buffer containing 100 mM Tris buffer pH 7.5. Non-glycosylated OCN or glycosylated OCN was incubated at 50 ng/ml in the diluted plasma for two hours in the presence of different concentration of human plasmin (Sigma) ranging from 0 to 0.3 U/ml. After two hours, OCN level was measured using total mouse OCN ELISA. Results are represented as percentage of initial concentration of non-glycosylated and glycosylated OCN respectively.

[1] = Ex vivo half-life of mouse OCN in plasma; assay type: in vitro ADME; details: 100 ng/ml, ELISA; for % OCN from initial: Bglap-/- mouse plasma
Procedure: The mouse OCN ex vivo half-life assays were performed with fresh plasma (lithium heparin) collected from four independent Bglap-/- mice. Glycosylated OCN produced in HEK293 cells and non-glycosylated OCN, produced in bacteria as previously described ([Ferron et al., 2012]), were incubated at 100 ng/ml in plasma at 37°C and OCN level was measured at indicated time points using the total mouse OCN ELISA assay described previously ([Ferron et al., 2010b]). […] The detection antibody is a goat polyclonal antibody directed against the C-terminal region (amino acids 26 to 46) of mouse OCN (anti-CTERM OCN). This assay detects with the same sensitivity glycosylated and non-glycosylated mouse OCN at concentration of 50 ng/ml or less (Figure 3—figure supplement 2). Therefore, all samples were diluted to be in this range before being measured by the ELISA. Human OCN half-life assay was performed ex vivo using Bglap-/- mice plasma and human OCN at 60 ng/ml. Human OCN level was measured at different time point using the human ucOCN ELISA described above. At the experiment start point (T0), an aliquot of plasma was diluted in ELISA assay buffer and kept on ice for OCN measurements. In some experiments, plasma was heat-inactivated for 30 min at 56°C, or treated with EDTA (10 mM, Wisent), phenylmethylsulfonyl fluoride (PMSF, 10 mM, Sigma), pepstatin A (Pep A, 10 μM, Sigma) which inhibits aspartic proteases (pepsin, cathepsin D, renin, chymosin), RVKR (Dec-RVKR-CMK, 50 μM; Tocris) or talabostat (10 mM; Tocris). Results are calculated in percentage relative to the initial concentration of non-glycosylated and glycosylated OCN respectively.

T1 sequence (P00747 581-810 limits assumed): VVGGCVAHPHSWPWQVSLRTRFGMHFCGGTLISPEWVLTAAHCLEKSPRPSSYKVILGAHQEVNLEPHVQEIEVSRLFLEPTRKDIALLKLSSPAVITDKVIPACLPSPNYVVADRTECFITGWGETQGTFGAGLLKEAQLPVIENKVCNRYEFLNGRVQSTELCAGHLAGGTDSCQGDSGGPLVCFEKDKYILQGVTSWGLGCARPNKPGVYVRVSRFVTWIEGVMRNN
T1 sequence (P00747 97-580 partner limits assumed): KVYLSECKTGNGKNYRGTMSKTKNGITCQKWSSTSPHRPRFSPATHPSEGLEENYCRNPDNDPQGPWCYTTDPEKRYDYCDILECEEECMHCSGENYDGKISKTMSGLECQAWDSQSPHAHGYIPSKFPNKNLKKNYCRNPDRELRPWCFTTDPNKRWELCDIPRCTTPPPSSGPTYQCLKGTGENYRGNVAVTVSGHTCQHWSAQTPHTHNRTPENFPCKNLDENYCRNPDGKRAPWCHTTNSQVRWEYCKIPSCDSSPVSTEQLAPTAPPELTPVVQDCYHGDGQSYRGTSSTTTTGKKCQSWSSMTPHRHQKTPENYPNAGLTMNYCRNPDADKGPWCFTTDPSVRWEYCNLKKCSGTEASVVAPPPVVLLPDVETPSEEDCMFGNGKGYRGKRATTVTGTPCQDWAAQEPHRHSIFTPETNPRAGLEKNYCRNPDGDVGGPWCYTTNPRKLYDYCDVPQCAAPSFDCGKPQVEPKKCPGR

ucOCN: Non-glycosylated uncarboxylated mouse osteocalcin produced in bacteria (YLGASVPSPDPLEPTREQCELNPACDELSDQYGLKTAYKRIYGITI; ends and bridges not checked; cysteine pairing not given here; UniProt P86546 50-95, looked up)
% OCN from initial (human plasmin; plasmin 0 U/ml, replicate 1): 91.2%
% OCN from initial (human plasmin; plasmin 0 U/ml, replicate 2): 108.8%
% OCN from initial (human plasmin; plasmin 0.024 U/ml, replicate 1): 69.0%
% OCN from initial (human plasmin; plasmin 0.024 U/ml, replicate 2): 80.5%
% OCN from initial (human plasmin; plasmin 0.12 U/ml, replicate 1): 38.3%
% OCN from initial (human plasmin; plasmin 0.12 U/ml, replicate 2): 44.1%
% OCN from initial (human plasmin; plasmin 0.3 U/ml, replicate 1): 11.5%
% OCN from initial (human plasmin; plasmin 0.3 U/ml, replicate 2): 15.5%
% OCN from initial in plasmin (0.3 U/ml) (human plasmin; replicate 1): 11.5%
% OCN from initial in plasmin (0.3 U/ml) (human plasmin; replicate 2): 15.5%
% OCN from initial in plasmin (0.3 U/ml) (human plasmin; replicate 3): 12.3%
% OCN from initial in plasmin (0.3 U/ml) (human plasmin; replicate 4): 11.4%
% OCN from initial in plasmin (0.3 U/ml) (human plasmin; replicate 5): 9.9%
reduction of concentration by plasmin (human plasmin; two hours): more than 90%
stability in saline solution containing 3.5% BSA ([1]; 37°C, 2 hr): stable
% OCN from initial ([1]; 37°C, 0 min, replicate 1): 100.0%
% OCN from initial ([1]; 37°C, 0 min, replicate 2): 100.0%
% OCN from initial ([1]; 37°C, 0 min, replicate 3): 100.0%
% OCN from initial ([1]; 37°C, 15 min, replicate 1): 87.1%
% OCN from initial ([1]; 37°C, 15 min, replicate 2): 96.1%
% OCN from initial ([1]; 37°C, 15 min, replicate 3): 88.6%
% OCN from initial ([1]; 37°C, 30 min, replicate 1): 81.2%
% OCN from initial ([1]; 37°C, 30 min, replicate 2): 85.3%
% OCN from initial ([1]; 37°C, 30 min, replicate 3): 89.8%
% OCN from initial ([1]; 37°C, 60 min, replicate 1): 73.3%
% OCN from initial ([1]; 37°C, 60 min, replicate 2): 71.4%
% OCN from initial ([1]; 37°C, 60 min, replicate 3): 69.0%
% OCN from initial ([1]; 37°C, 90 min, replicate 1): 67.3%
% OCN from initial ([1]; 37°C, 90 min, replicate 2): 65.7%
% OCN from initial ([1]; 37°C, 90 min, replicate 3): 66.9%
% OCN from initial ([1]; 37°C, 120 min, replicate 1): 60.1%
% OCN from initial ([1]; 37°C, 120 min, replicate 2): 56.6%
% OCN from initial ([1]; 37°C, 120 min, replicate 3): 51.9%
% OCN from initial ([1]; 37°C, 180 min, replicate 1): 51.9%
% OCN from initial ([1]; 37°C, 180 min, replicate 2): 46.9%
% OCN from initial ([1]; 37°C, 180 min, replicate 3): 43.8%
% OCN from initial ([1]; 37°C, 300 min, replicate 1): 36.9%
% OCN from initial ([1]; 37°C, 300 min, replicate 2): 36.3%
% OCN from initial ([1]; 37°C, 300 min, replicate 3): 30.7%
% OCN from initial ([1]; Figure 3D, 2hrs, 4°C, Not HI, replicate 1): 108.8%
% OCN from initial ([1]; Figure 3D, 2hrs, 4°C, Not HI, replicate 2): 99.4%
% OCN from initial ([1]; Figure 3D, 2hrs, 4°C, Not HI, replicate 3): 94.3%
% OCN from initial ([1]; Figure 3D, 2hrs, 37°C, HI (heat-inactivated plasma), replicate 1): 108.8%
% OCN from initial ([1]; Figure 3D, 2hrs, 37°C, HI (heat-inactivated plasma), replicate 2): 108.9%
% OCN from initial ([1]; Figure 3D, 2hrs, 37°C, HI (heat-inactivated plasma), replicate 3): 82.4%
% OCN from initial ([1]; Figure 3D, 2hrs, 37°C, Not HI, replicate 1): 34.6%
